Reference: paper PMC7594496, “Combinatorial multivalent interactions drive cooperative assembly of the COPII coat” (The Journal of Cell Biology, 2020)

Target: T1, Sec23–Sec24 complex (WT) (yeast (S. cerevisiae), UniProt P15303 1-768; P40482 1-926)
T1 construct: Sec23, COPII inner coat subunit, yeast; Co-expressed and co-purified complex; also called Sec23 and His-Sec24; inner coat; source: Sf9 cells (pFastbac), purified (HisTrap HP, HiTrap Q HP)
Experiment: liposome flotation (coat recruitment to synthetic liposomes); purified Sar1 (15 µg/ml), Sec23–Sec24 (20 µg/ml), Sec13–Sec31 (30 µg/ml), 0.27 mM major/minor liposomes (0.4 µm), 0.1 mM GMP-PNP, HKM buffer pH 7.0, 30 min at 25°C; liposomes floated through sucrose; bound proteins by SDS-PAGE and SYPRO red
Settings: both partners purified

T1 sequence (P15303 whole entry, chain 1 of 2): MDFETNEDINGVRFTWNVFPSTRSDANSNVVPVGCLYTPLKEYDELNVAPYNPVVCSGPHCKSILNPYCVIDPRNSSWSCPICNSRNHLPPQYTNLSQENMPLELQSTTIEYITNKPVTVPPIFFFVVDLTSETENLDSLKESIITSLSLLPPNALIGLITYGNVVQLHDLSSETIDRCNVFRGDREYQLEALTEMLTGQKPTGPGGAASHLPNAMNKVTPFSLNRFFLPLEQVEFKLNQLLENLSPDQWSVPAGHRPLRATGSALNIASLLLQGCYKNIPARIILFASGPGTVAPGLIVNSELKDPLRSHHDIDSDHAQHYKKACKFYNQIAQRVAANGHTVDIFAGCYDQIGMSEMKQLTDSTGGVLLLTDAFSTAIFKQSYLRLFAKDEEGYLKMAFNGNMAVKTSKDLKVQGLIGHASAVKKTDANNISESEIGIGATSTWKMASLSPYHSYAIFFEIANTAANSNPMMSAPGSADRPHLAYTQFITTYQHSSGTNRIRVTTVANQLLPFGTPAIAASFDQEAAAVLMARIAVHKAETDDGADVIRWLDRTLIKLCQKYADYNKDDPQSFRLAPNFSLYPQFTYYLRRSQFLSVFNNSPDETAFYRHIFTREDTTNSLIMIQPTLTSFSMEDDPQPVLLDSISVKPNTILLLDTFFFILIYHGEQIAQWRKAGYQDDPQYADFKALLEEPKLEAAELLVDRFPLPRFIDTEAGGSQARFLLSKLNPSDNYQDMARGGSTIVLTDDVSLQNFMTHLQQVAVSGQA
T1 sequence (P40482 whole entry, chain 2 of 2): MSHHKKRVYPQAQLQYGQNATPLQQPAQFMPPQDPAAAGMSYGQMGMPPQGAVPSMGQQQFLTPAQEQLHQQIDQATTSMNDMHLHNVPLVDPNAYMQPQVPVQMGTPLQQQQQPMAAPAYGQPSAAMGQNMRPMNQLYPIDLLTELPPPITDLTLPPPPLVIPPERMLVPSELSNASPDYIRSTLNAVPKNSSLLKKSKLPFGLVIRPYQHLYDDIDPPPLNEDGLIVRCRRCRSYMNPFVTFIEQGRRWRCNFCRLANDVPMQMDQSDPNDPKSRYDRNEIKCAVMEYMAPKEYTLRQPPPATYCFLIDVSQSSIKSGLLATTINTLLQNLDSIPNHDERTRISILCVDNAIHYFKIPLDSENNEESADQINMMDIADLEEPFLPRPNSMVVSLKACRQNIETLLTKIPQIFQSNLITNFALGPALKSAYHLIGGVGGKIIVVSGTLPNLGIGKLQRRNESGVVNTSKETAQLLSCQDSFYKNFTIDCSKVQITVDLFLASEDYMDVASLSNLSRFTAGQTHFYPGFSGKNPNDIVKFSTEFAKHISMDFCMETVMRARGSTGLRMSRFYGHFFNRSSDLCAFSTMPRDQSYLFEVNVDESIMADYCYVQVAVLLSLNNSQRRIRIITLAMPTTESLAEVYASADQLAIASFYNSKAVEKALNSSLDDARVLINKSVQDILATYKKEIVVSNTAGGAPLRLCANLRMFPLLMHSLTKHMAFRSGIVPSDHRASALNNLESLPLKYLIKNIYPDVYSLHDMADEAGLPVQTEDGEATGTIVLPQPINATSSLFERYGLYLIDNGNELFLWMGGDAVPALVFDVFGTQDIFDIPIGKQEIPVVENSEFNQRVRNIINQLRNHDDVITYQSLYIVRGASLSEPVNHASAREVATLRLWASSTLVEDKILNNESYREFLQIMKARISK

- binding result: binds
B1: Sec13–Sec31 complex (WT) (complex, yeast (S. cerevisiae) | S. cerevisiae)
chain 1: MVVIANAHNELIHDAVLDYYGKRLATCSSDKTIKIFEVEGETHKLIDTLTGHEGPVWRVDWAHPKFGTILASCSYDGKVLIWKEENGRWSQIAVHAVHSASVNSVQWAPHEYGPLLLVASSDGKVSVVEFKENGTTSPIIIDAHAIGVNSASWAPATIEEDGEHNGTKESRKFVTGGADNLVKIWKYNSDAQTYVLESTLEGHSDWVRDVAWSPTVLLRSYLASVSQDRTCIIWTQDNEQGPWKKTLLKEEKFPDVLWRASWSLSGNVLALSGGDNKVTLWKENLEGKWEPAGEVHQ
chain 2: MVKLAEFSRTATFAWSHDKIPLLVSGTVSGTVDANFSTDSSLELWSLLAADSEKPIASLQVDSKFNDLDWSHNNKIIAGALDNGSLELYSTNEANNAINSMARFSNHSSSVKTVKFNAKQDNVLASGGNNGEIFIWDMNKCTESPSNYTPLTPGQSMSSVDEVISLAWNQSLAHVFASAGSSNFASIWDLKAKKEVIHLSYTSPNSGIKQQLSVVEWHPKNSTRVATATGSDNDPSILIWDLRNANTPLQTLNQGHQKGILSLDWCHQDEHLLLSSGRDNTVLLWNPESAEQLSQFPARGNWCFKTKFAPEAPDLFACASFDNKIEVQTLQNLTNTLDEQETETKQQESETDFWNNVSREESKEKPTVFHLQAPTWYGEPSPAAHWAFGGKLVQITPDGKGVSITNPKISGLESNTTLSEALKTKDFKPLINQRLVKVIDDVNEEDWNLLEKLSMDGTEEFLKEALAFDNDESDAQDDANNEKEDDGEEFFQQIETNFQPEGDFSLSGNIEQTISKNLVSGNIKSAVKNSLENDLLMEAMVIALDSNNERLKESVKNAYFAKYGSKSSLSRILYSISKREVDDLVENLDVSQWKFISKAIQNLYPNDIAQRNEMLIKLGDRLKENGHRQDSLTLYLAAGSLDKVASIWLSEFPDLEDKLKKDNKTIYEAHSECLTEFIERFTVFSNFINGSSTINNEQLIAKFLEFINLTTSTGNFELATEFLNSLPSDNEEVKTEKARVLIASGKSLPAQNPATATTSKAKYTNAKTNKNVPVLPTPGMPSTTSIPSMQAPFYGMTPGASANALPPKPYVPATTTSAPVHTEGKYAPPSQPSMASPFVNKTNSSTRLNSFAPPPNPYATATVPATNVSTTSIPQNTFAPIQPGMPIMGDYNAQSSSIPSQPPINAVSGQTPHLNRKANDGWNDLPLKVKEKPSRAKAVSVAPPNILSTPTPLNGIPANAASTMPPPPLSRAPSSVSMVSPPPLHKNSRVPSLVATSESPRASISNPYAPPQSSQQFPIGTISTANQTSNTAQVASSNPYAPPPQQRVATPLSGGVPPAPLPKASNPYAPTATTQPNGSSYPPTGPYTNNHTMTSPPPVFNKPPTGPPPISMKKRSNKLASIEQNPSQGATYPPTLSSSASPLQPSQPPTLASQVNTSAENVSHEIPADQQPIVDFLKEELARVTPLTPKEYSKQLKDCDKRLKILFYHLEKQDLLTQPTIDCLHDLVALMKEKKYKEAMVIHANIATNHAQEGGNWLTGVKRLIGIAEATLN
notes: Sec13, COPII outer coat subunit, yeast; Sec31, COPII outer coat subunit, S. cerevisiae; disordered proline-rich region defined as residues 764-1,174; also called outer coat; WT Sec31; source: Sf9 cells (pFastbac), purified (HisTrap HP, TEV cleavage of the 6xHis tag on Sec31, HiTrap Q HP); not shown: His6, N-terminal, cleaved
